Test results taken from patent publication US20250066499A1 (SUNSHINE GUOJIAN PHARMACEUTICAL SHANGHAI, published 2025).
Where two headings read alike, the source gives them in different places.

Legend:
[1] = biological target: T1, human CD73-His protein (human, UniProt P21589 27-549); assay: ELISA, biotinylated CD73-His on streptavidin plate
T1 construct: Expressed in HEK-293F with a signal peptide that is not specified; In the ELISAs it was biotinylated with EZ-Link NHS-Biotin (CD73-biotin) and captured on streptavidin; in SPR and the enzyme assay it was used as CD73-His; also called CD73-his antigen; CD73-biotin
T1 sequence: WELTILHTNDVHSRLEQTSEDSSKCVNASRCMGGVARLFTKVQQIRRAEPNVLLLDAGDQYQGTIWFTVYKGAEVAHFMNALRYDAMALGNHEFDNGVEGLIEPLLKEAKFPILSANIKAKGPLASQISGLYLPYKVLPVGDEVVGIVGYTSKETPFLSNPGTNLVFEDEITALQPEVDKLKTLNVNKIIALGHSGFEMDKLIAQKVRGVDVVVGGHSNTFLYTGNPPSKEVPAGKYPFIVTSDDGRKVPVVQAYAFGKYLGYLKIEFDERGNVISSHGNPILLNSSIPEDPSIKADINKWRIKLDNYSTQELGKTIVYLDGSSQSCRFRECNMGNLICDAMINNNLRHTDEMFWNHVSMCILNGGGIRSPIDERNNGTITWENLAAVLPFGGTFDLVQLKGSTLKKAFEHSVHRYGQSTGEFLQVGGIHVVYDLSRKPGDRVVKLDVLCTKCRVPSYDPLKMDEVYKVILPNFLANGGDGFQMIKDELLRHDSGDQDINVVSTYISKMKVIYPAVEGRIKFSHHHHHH
Experimental: (§1) The ELISA plates were coated with SA protein diluted to 1.5 μg/mL in coating buffer (50 mM carbonate coating buffer, pH 9.6) and incubated overnight at 4° C. The supernatant was discarded, and the plates were washed three times with PBST. Then, 5% skimmed milk powder prepared with PBS was added for blocking and the plates were incubated for 2 h at 37° C. After washing the plates once with PBST, CD73-biotin protein (prepared by biotinylating CD73-His protein according to the EZ-Link NHS-Biotin Reagent instructions) was diluted to 0.5 μg/mL and added at 100 μL/well for incubation at room temperature for 1 h. The plates were washed three times with PBST, and the prepared murine-derived monoclonal antibodies against human CD73 were serially diluted with 1% BSA buffer prepared with PBST and added to the ELISA plates at 100 μl/well. The plates were incubated at 37° C. for 1 h. After washing the plates three times with PBST, HRP-labeled goat anti-mouse IgG secondary antibody was added and the plates were incubated for 30 min at 37° C. After washing the plates three times with PBST, the residual droplets were patted dry on absorbent paper as much as possible. Then, 100 μl of TMB color developing solution was added to each well, and the plates were incubated in the dark at room temperature for 5 min for color development. Subsequently, 50 μl of 2M H₂SO₄ stop solution was added to each well to terminate the substrate reaction. The OD values were read at 450 nm using a multimode microplate reader to analyze the binding ability of the tested antibodies to the target antigen human CD73-His.
The binding affinity of various humanized antibodies to human CD73-his protein was measured with reference to Example 3.

[2] = biological target: T1, human CD73-His protein; assay: cell-based or functional assay
[3] = biological target: T1, human CD73-His protein; assay: ELISA, biotinylated CD73-His on streptavidin plate; remark: listed apart in the source
Experimental: as §1

[4] = biological target: T2, CD73 protein on the surface of tumor cells (human, UniProt P21589 27-549); assay: cell-based or functional assay
T2 sequence (looked up): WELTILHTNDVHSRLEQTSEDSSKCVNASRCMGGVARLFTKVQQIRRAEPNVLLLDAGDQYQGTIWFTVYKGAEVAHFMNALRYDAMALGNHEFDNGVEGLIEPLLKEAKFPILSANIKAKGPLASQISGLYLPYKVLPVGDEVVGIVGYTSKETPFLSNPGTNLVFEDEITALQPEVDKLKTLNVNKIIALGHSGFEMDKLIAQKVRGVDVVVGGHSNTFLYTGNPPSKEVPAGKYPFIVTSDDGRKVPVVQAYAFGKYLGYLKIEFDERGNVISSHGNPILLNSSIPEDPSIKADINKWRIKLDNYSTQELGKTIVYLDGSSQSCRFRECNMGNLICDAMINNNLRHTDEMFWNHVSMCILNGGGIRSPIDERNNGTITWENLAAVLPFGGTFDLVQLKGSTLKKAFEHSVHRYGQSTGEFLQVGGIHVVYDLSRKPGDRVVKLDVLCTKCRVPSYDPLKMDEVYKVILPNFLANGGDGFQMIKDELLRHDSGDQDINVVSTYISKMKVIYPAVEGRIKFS

B1: 48A11-HuV23 (antibody, human IgG4, V domains shown)
VH: QVQLVQSGAEVKKPGASVKVSCKASGYTFTSYWMHWVRQAPGQGLEWIGEINPSIGRTNYNEKFKSRATLTVDKSTSTAYMELSSLRSEDTAVYYCARRVYGTMDYWGQGTLVTVSS
VL: DIQMTQSPSSLSASVGDRVTITCKASQDINSYLSWFQQKPGKSPKLLIYRANIWVDGVPSRFSGSGSGQDYTFTISSLQPEDIATYYCLQYDELYTFGQGTKVEIK
notes: Humanized
Question: With B1 as the binder, how does the EC50 [1] read?
Answer: 0.081 nM

B2: 48A11-HuV22 (antibody, human IgG4, V domains shown)
VH: QVQLVQSGAEVKKPGASVKVSCKASGYTFTSYWMHWVRQAPGQGLEWIGEINPSIGRTNYNEKFKSRATLTVDKSTSTAYMELSSLRSEDTAVYYCARRVYGTMDYWGQGTLVTVSS
VL: DIQMTQSPSSLSASVGDRVTITCKASQDINSYLSWFQQKPGKSPKTLIYRANIWVDGVPSRFSGSGSGQDYTFTISSLQPEDIATYYCLQYDELYTFGQGTKVEIK
notes: Humanized
Question: B2 was tested. Which EC50 [1] did it give?
Answer: 0.093 nM

Question: And the “IC50 (nM), inhibition of enzyme activity of soluble CD73-His (AMP/ATP, Cell Titer-Glo)” value [2]?
Answer: 9.02 nM

B3: 56B10-HuV21 (antibody, human IgG4, V domains shown)
VH: QVQLVQSGAEVKKPGASVKVSCKTSGYTFTRYYIYWVRQAPGQGLEWIGWIYPGNFNTKYNEKFKGRATLTADTSASTAYMELSSLRSEDTAVYYCARDVYDYAGFAYWGQGTLVTVSS
VL: DIQLTQSPSFLSASVGDRVTITCKASQGVATAVAWYQQKPGQSPKLLIYWASTRHTGVPDRFSGSGSGTEFTLTISSLQPEDFATYYCQQYSSYPWTFGQGTKVEIK
notes: Humanized
Question: For B3, which EC50 [1] is on record?
Answer: 0.11 nM

B4: 56B10-HuV23 (antibody, human IgG4, V domains shown)
VH: QVQLVQSGAEVKKPGASVKVSCKTSGYTFTRYYIYWVRQAPGQGLEWIGWIYPGNFNTKYNEKFKGRATLTADTSASTAYMELSSLRSEDTAVYYCARDVYDYAGFAYWGQGTLVTVSS
VL: DIQMTQSPSFLSASVGDRVTITCKASQGVATAVAWYQQKPGKSPKLLIYWASTRHTGVPSRFSGSGSGTEFTLTISSLQPEDFATYFCQQYSSYPWTFGQGTKVEIK
notes: Humanized
Question: Which EC50 [1] does the source give for B4 here?
Answer: 0.107 nM

B5: 56B10-HuV32 (antibody, human IgG4, V domains shown)
VH: QVQLQQSGAEVKKPGASVKVSCKASGYTFTRYYIYWVRQRPGQGLEWIGWIYPGNFNTKYNEKFKGRATLTADTSASTAYMELSSLTSEDTAVYYCARDVYDYAGFAYWGQGTLVTVSS
VL: DIQLTQSPSFLSASVGDRVTITCKASQGVATAVAWYQQKPGKAPKLLIYWASTRHTGVPSRFSGSGSGTEFTLTISSLQPEDFATYYCQQYSSYPWTFGQGTKVEIK
notes: Humanized
Question: How did the EC50 [1] turn out when B5 was run?
Answer: 0.105 nM

B6: 56B10-HuV33 (antibody, human IgG4, V domains shown)
VH: QVQLQQSGAEVKKPGASVKVSCKASGYTFTRYYIYWVRQRPGQGLEWIGWIYPGNFNTKYNEKFKGRATLTADTSASTAYMELSSLTSEDTAVYYCARDVYDYAGFAYWGQGTLVTVSS
VL: DIQMTQSPSFLSASVGDRVTITCKASQGVATAVAWYQQKPGKSPKLLIYWASTRHTGVPSRFSGSGSGTEFTLTISSLQPEDFATYFCQQYSSYPWTFGQGTKVEIK
notes: Humanized
Question: Which EC50 [1] does the source give for B6 here?
Answer: 0.112 nM

Question: And the “IC50 (nM), inhibition of enzyme activity of soluble CD73-His (AMP/ATP, Cell Titer-Glo)” value [2]?
Answer: 4.13 nM

B7: 48A11 (antibody, V domains shown)
VH: QVQLQQPGAELVKPGASVKLSCKASGYTFTSYWMHWVKQRPGQGLEWIGEINPSIGRTNYNEKFKSKATLTVDKSSSTAFMQLSSLTSEDSAVYYCARRVYGTMDYWGQGTSVTVSS
VL: DIKMTQSPSSMYASLGERVTITCKASQDINSYLSWFQQKPGKSPKTLIYRANIWVDGVPSRFSGSGSGQDYSLTISSLEYEDMGIYYCLQYDELYTFGGGTKLEIK
notes: Murine hybridoma antibody; also called murine-derived antibody 48A11
Question: What does the source list for B7?
Answer: EC50 [3]: 0.0197 µg/mL; IC50 (ng/mL), inhibition of CD73 enzyme activity on H1975 cells (AMP/ATP, Cell Titer-Glo) [4]: 17 ng/mL

B8: 56B10 (antibody, V domains shown)
VH: QVQLQQSGPELVKPGASVRISCKTSGYTFTRYYIYWVKQRPGQGLEWIGWIYPGNFNTKYNEKFKGKATLTADTSSSTAYMQLSSLTSEDSAVYFCARDVYDYAGFAYWGQGTLVTVSA
VL: DIVMTQSHRFLSTSVGDRVSITCKASQGVATAVAWYQQKPGQSPKLLIYWASTRHTGVPDRFTGSGSGTDFTLTISNVQSEDLADYFCQQYSSYPWTFGGGTKLEIK
notes: Murine hybridoma antibody; also called murine-derived antibody 56B10
Question: With B8 as the binder, how does the EC50 [3] read?
Answer: 0.0269 µg/mL

Question: What about the “IC50 (ng/mL), inhibition of CD73 enzyme activity on H1975 cells (AMP/ATP, Cell Titer-Glo)” value [4] of the same binder?
Answer: 20.7 ng/mL

B9: 56B10-ch (antibody, human IgG4 S228P, kappa, V domains shown)
VH: QVQLQQSGPELVKPGASVRISCKTSGYTFTRYYIYWVKQRPGQGLEWIGWIYPGNFNTKYNEKFKGKATLTADTSSSTAYMQLSSLTSEDSAVYFCARDVYDYAGFAYWGQGTLVTVSA
VL: DIVMTQSHRFLSTSVGDRVSITCKASQGVATAVAWYQQKPGQSPKLLIYWASTRHTGVPDRFTGSGSGTDFTLTISNVQSEDLADYFCQQYSSYPWTFGGGTKLEIKR
notes: Chimeric: murine variable regions spliced with human IgG4 (S228P) and human kappa constant regions; also called chimeric antibody 56B10-ch
Question: What does the source list for B9?
Answer: EC50 [1]: 0.07 nM; EC50 [3]: 0.09 nM

B10: 48A11-ch (antibody, human IgG4 S228P, kappa, V domains shown)
VH: QVQLQQPGAELVKPGASVKLSCKASGYTFTSYWMHWVKQRPGQGLEWIGEINPSIGRTNYNEKFKSKATLTVDKSSSTAFMQLSSLTSEDSAVYYCARRVYGTMDYWGQGTSVTVSS
VL: DIKMTQSPSSMYASLGERVTITCKASQDINSYLSWFQQKPGKSPKTLIYRANIWVDGVPSRFSGSGSGQDYSLTISSLEYEDMGIYYCLQYDELYTFGGGTKLEIKR
notes: Chimeric: murine variable regions spliced with human IgG4 (S228P) and human kappa constant regions; also called chimeric antibody 48A11-ch
Question: For B10, which EC50 [1] is on record?
Answer: 0.058 nM

Question: And the EC50 [3]?
Answer: 0.067 nM
